Literature values in article PMC8246649 (Biochemistry, 2021).

Tests used:
UNC119B = UNC119B (Homo sapiens, UniProt A6NIH7); conditions: read-out: Reported Kd of release factor to UNC119B
UNC119A = UNC119A (Homo sapiens, UniProt Q13432); conditions: read-out: Reported Kd of release factor to UNC119A

Sequence of UNC119B (A6NIH7 whole entry): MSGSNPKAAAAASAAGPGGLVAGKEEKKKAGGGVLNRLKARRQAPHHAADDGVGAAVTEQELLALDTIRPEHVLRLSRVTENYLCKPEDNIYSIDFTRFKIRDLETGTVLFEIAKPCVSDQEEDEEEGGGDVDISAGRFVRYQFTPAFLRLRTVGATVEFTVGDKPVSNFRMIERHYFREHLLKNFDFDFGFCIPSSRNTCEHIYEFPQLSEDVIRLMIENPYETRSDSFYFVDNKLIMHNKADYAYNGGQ

Kd (UNC119B) | Kd (UNC119A) | Substance
216 nM | 159 nM | ARL2: ADP ribosylation factor-like protein 2, release factor of UNC119 cargo
33 nM |  | ARL3: ADP ribosylation factor-like protein 3, release factor of UNC119 cargo
